Positions count from the first letter of the chain named. Names and notes keep the numbering of the source.
What was measured:
[1] = biological target: T1, DesKC_H188E, DesKC trapped in the phosphotransferase state (Bacillus subtilis, UniProt O34757, H188E); test: crystal structure
T1 sequence: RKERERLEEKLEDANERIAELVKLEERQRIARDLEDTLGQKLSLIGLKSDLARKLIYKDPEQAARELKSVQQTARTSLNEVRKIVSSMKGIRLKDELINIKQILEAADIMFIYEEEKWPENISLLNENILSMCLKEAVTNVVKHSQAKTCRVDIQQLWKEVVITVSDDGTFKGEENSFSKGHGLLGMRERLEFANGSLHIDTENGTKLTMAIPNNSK

SEC = biological target: the molecule itself; test: SEC
[2] = biological target: the molecule itself

B1: DesR_REC-Q10A, receiver domain of DesR with Q10A, as crystallised with DesKC_H188E (domain or fragment)
chain: MISIFIAEDAQMLLGALGSLLNLEDDMEVVGKGTTGQDAVDFVKKRQPDVCIMDIEMPGKTGLEAAEELKDTGCKIIILTTFARPGYFQRAIKAGVKGYLLKDSPSEELANAIRSVMNGKRIYAPELMEDLYSEA
binding result [1]: binds

B2: Phosphorylated DesR-REC (P~DesRREC), wild type (domain or fragment)
chain: B1 chain with A10Q
binding result (SEC): binds

B3: Phosphorylated DesR_REC-Q10A (domain or fragment)
chain: B1 chain
Kd [2]: 1440 nM | fold increase of the KD of dimerization against wild type P~RR [2]: 4 fold

From article doi:10.1101/2021.11.12.468217 (bioRxiv, 2021)
